Legend:
TDP-43 RRM1-2 [1] = target: T1, TDP-43 RRM1-2 (UniProt Q13148 96-267); assay: pull-down; Anisotropy: 50 mM Tris, 100 mM NaCl, pH 8.0, 10 C, 0.1 uM probe, 0-30 uM protein (RNasin for RNA); pull-down: same buffer on Ni resin, room temperature, 1 h, eluted with 1 M NaCl; conditions: protein: recombinant; tags: N-term His6 + thrombin site + GSSGSSG linker; His removed by thrombin for anisotropy, kept for pull-down
TDP-43 RRM1 [2] = target: T2, TDP-43 RRM1 (UniProt Q13148 96-185); assay: as above; conditions: protein: recombinant; tags: N-term His6 + thrombin site + GSSGSSG linker; His removed by thrombin for anisotropy, kept for pull-down
TDP-43 RRM2 [3] = target: T3, TDP-43 RRM2 (UniProt Q13148 186-267); assay: as above; conditions: protein: recombinant; tags: N-term His6 + thrombin site + GSSGSSG linker; His removed by thrombin for anisotropy, kept for pull-down
TDP-43 RRM1-2 [4] = target: T1, TDP-43 RRM1-2; assay: fluorescence anisotropy; RNasin; Anisotropy: 50 mM Tris, 100 mM NaCl, pH 8.0, 10 C, 0.1 uM probe, 0-30 uM protein (RNasin for RNA); pull-down: same buffer on Ni resin, room temperature, 1 h, eluted with 1 M NaCl; conditions: protein: recombinant; tags: N-term His6 + thrombin site + GSSGSSG linker; His removed by thrombin for anisotropy, kept for pull-down; label: 5'-fluorescein
TDP-43 RRM1 [5] = target: T2, TDP-43 RRM1; assay: as above; conditions: protein: recombinant; tags: N-term His6 + thrombin site + GSSGSSG linker; His removed by thrombin for anisotropy, kept for pull-down; label: 5'-fluorescein
TDP-43 RRM2 [6] = target: T3, TDP-43 RRM2; assay: as above; conditions: protein: recombinant; tags: N-term His6 + thrombin site + GSSGSSG linker; His removed by thrombin for anisotropy, kept for pull-down; label: 5'-fluorescein
TDP-43 RRM1-2 [7] = target: T1, TDP-43 RRM1-2; assay: fluorescence anisotropy; Anisotropy: 50 mM Tris, 100 mM NaCl, pH 8.0, 10 C, 0.1 uM probe, 0-30 uM protein (RNasin for RNA); pull-down: same buffer on Ni resin, room temperature, 1 h, eluted with 1 M NaCl; conditions: protein: recombinant; tags: N-term His6 + thrombin site + GSSGSSG linker; His removed by thrombin for anisotropy, kept for pull-down; label: 5'-fluorescein
TDP-43 RRM1 [8] = target: T2, TDP-43 RRM1; assay: as above; conditions: protein: recombinant; tags: N-term His6 + thrombin site + GSSGSSG linker; His removed by thrombin for anisotropy, kept for pull-down; label: 5'-fluorescein
TDP-43 RRM2 [9] = target: T3, TDP-43 RRM2; assay: as above; conditions: protein: recombinant; tags: N-term His6 + thrombin site + GSSGSSG linker; His removed by thrombin for anisotropy, kept for pull-down; label: 5'-fluorescein

T2 sequence (Q13148 96-185): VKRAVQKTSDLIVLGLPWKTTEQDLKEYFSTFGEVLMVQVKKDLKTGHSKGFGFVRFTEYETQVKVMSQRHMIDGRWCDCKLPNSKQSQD
T3 sequence (Q13148 186-267): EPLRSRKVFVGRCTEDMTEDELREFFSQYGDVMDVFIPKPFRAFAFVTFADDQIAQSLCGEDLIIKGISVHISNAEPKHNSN
T1 sequence (Q13148 96-267): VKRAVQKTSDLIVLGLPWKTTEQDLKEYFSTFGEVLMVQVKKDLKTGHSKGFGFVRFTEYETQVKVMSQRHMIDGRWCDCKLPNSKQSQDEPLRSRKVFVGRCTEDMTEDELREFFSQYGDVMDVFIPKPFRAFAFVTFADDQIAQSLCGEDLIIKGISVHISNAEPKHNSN

| Binder | binding result (TDP-43 RRM1-2 [1]) | binding result (TDP-43 RRM1 [2]) | binding result (TDP-43 RRM2 [3]) | binding result (TDP-43 RRM2 [9]) | Kd (TDP-43 RRM1-2 [7]) [nM] | Kd (TDP-43 RRM1 [8]) [nM] | other results |
| --- | --- | --- | --- | --- | --- | --- | --- |
| TTTTTTTTTTTT (ssDNA) [T12] | binds | binds | no binding |  |  |  |  |
| UGUGUGUG (ssRNA) [Fl-(UG)4 RNA] |  |  |  |  |  |  | Kd (TDP-43 RRM1-2 [4]): 3.5 ± 2.3 nM; Kd (TDP-43 RRM1 [5]): 28 ± 9 nM; binding result (TDP-43 RRM2 [6]): no binding |
| TTTTTTTTTTTTTTTTTTTTTTTTTTTTTT (ssDNA) [T30] | binds | binds | no binding |  |  |  |  |
| ACACACAC (ssDNA) [Fl-(AC)4 ssDNA] |  |  |  | no binding |  |  | binding result (TDP-43 RRM1-2 [7]): no binding; binding result (TDP-43 RRM1 [8]): no binding |
| UGUGUGUG (ssDNA, DNA with T replaced by U) [Fl-(UG)4 ssDNA] |  |  |  | no binding | 150 ± 23 | 61 ± 30 |  |
| TGTGTGTG (ssDNA) [Fl-(TG)4 ssDNA] |  |  |  | no binding | 77 ± 4.2 | 52 ± 12 |  |
